This series concerns the molecule itself. Put plainly: AUC; Beckman Optima XL-I, UV detection at 280 nm, 45,000 rpm, 20°C; NalD in aqueous solution before addition of PEG3350; apparent molar masses from peak positions.

B1: NalD (natural protein)
chain: MRRTKEDSEKTRTAILLAAEELFLEKGVSHTSLEQIARAAGVTRGAVYWHFQNKAHLFNEMLNQVRLPPEQLTERLSGCDGSDPLRSLYDLCLEAVQSLLTQEKKRRILTILMQRCEFTEELREAQERNNAFVQMFIELCEQLFARDECRVRLHPGMTPRIASRALHALILGLFNDWLRDPRLFDPDTDAEHLLEPMFRGLVRDWGQASSAP
notes: NalD, TetR family repressor of the MexAB-OprM multi-drug efflux operon, Pseudomonas aeruginosa PAO1; a protein of 212 amino acids; nalD gene amplified by PCR and cloned into PET-30a between NdeI and XhoI; also called NalD protein; regulator of MexAB-OprM multi-drug efflux systems; source: E. coli BL21 star (DE3), purified (SFF, Heparin, Ni-NTA, monoQ columns)
For B1, the binding result is “binds”.

The values are drawn from publication PMC4014539, “PEG-Protein Interaction Induced Contraction of NalD Chains” (PLoS ONE, 2014).
